In patent US20250090677A1, “ANTI-CDH6 ANTIBODIES AND ANTIBODY-DRUG CONJUGATES THEREOF” (MULTITUDE THERAPEUTICS INC., priority 2021, published 2025):

B1: CL069463: mouse anti-CDH6 monoclonal antibody; VH SEQ ID NO: 41, VL SEQ ID NO: 46 (antibody, V domains shown)
VH: EVQLVESGGGLVQPKGSLKLSCAASGFTFNTYALTWVRQAPGKGLEWVGRIKSKNKDYETYYADSVKDRFTISRNDSQSLLYLQMNNLKTEDTAIYYCVRQNWNYFDYWGQGTTLTVSS
VL: DIQMTQSPASLAASVGETVTITCRASENIYYSLAWYQQRQGKSPQLLIYNANSLKDGVPSRFSGSGSGTQYSMKINSMQPEDTATYFCQQAYDVPPTFGGGTKLEIK
modifications: CL069463 VH; Ch069463 VH; CL069463 VL; Ch069463 VL
B2: CL069439: mouse anti-CDH6 monoclonal antibody; VH SEQ ID NO: 103, VL SEQ ID NO: 104 (antibody, V domains shown)
VH: EVQLQQSGTELVRTGASVKISCKASGYSFTGYYIHWIKQSHGESLEWIGYISCFNGDTSYNQNFKDRATFNVDTSSSTAYMQFISLTSEDSAVYYCVRGRYGNFNYFDYWGQGTTLTVSS
VL: DIVLTQSPASLAVSLGQRATISCRASESVEFYGTSLMQWFQQKPGHPPQLLIYATSNVDSGVPARFSASGSGTDFSLNIHPVEEADIAMYFCQQSRRIPWTFGGGTKLEIK
modifications: CL069439 VH; Ch069439 VH; CL069439 VL; Ch069439 VL
B3: DS-6000a (conjugate, chains of the INN, looked up)
VH: EVQLVQSGAEVKKPGASVKVSCKASGYTFTRNFMHWVRQAPGQGLEWMGWIYPGDGETEYAQKFQGRVTITADTSTSTAYMELSSLRSEDTAVYYCARGVYGGFAGGYFDFWGQGTLVTVSS
VL: DIQMTQSPSSLSASVGDRVTITCKASQNIYKNLAWYQQKPGKAPKLLIYDANTLQTGVPSRFSGSGSGSDFTLTISSLQPEDFATYFCQQYYSGWAFGQGTKVEIK
modifications: deruxtecan payload
B4: CL069066: mouse anti-CDH6 monoclonal antibody; VH SEQ ID NO: 95, VL SEQ ID NO: 96 (antibody, V domains shown)
VH: EVKLLESGGGLVQPGGSLKLSCAASGFDFSRYWMTWVRQAPGKGLEWIGEINPDSSTINYTPSLKDKFIISRDNAKNTLYLQMNKVTSEDTALYYCTRRPHYYGYFDSWGQGTTLTVSS
VL: DIVLTQSPASLAVSLGQRATISCRASESVEYYGTTLMQWYQQKPGQPPQLLIYAGSNVESGVPARFSGSGSGTEFSLNIHPVEEDDIGMYFCQQSRKVPWTFGGGTKLEIK
modifications: CL069066 VH; Ch069066 VH; CL069066 VL; Ch069066 VL
B5: CL069707: mouse anti-CDH6 monoclonal antibody; VH SEQ ID NO: 18, VL SEQ ID NO: 23 (antibody, V domains shown)
VH: EVHLVESGGGLVQPKGSLKLSCVASGFTFTTYAMNWVRQAPGKGLEWVARIRIKNNNYATYYADSVTDRFTISRDDSQSMLYLQMNNLKTEDTAMYYCVRPDYGNYGLAYWGQGTLVTVSA
VL: EIVLTQSPTTMAASPGEKITITCSASSSISSHYLHWYQQKPGFSPKLLIYRSFYLASGVPLRFTGSGSGTSYSLTIGTMEAEDVATYYCQQDIVPLTFGAGTKLELK
modifications: CL069707 VH; Ch069707 VH; CL069707 VL; Ch069707 VL

How the values were obtained:
[1] = molecular target: T1, recombinant protein CDH6 (Homo sapiens, UniProt P55285); assay: ELISA binding activity of mouse monoclonal antibodies to CDH6 recombinant protein; settings: CDH6 coated 1 μg/mL, FIG. 23
T1 construct: CDH6 extracellular region (Ser 54-Ala 615) was used as an immunogen; purchased ACRO Biosystems CA6-H5229
T1 sequence (P55285 54-615): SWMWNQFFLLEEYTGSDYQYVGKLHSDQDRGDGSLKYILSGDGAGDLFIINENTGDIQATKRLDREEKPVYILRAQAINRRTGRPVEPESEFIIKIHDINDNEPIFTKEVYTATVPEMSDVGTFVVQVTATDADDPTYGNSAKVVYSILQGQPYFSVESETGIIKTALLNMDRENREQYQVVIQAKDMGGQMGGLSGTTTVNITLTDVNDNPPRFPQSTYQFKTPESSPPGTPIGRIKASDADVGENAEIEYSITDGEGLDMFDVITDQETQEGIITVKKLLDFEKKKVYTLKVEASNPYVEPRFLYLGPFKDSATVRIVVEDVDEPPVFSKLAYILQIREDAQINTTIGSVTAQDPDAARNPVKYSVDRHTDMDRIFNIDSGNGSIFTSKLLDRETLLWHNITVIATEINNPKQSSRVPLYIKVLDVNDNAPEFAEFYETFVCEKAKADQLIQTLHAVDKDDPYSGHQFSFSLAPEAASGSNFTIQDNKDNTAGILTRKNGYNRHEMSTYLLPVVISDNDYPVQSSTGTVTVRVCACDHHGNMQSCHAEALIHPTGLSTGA
Method: The recombinant protein CDH6 was coated on ELISA plates at 1 μg/mL overnight at 4° C.; after being washed with PBST, the plate was added with 10% fetal bovine serum, and the mixture was blocked at 37° C. for 1 h; the plate was added with 13 monoclonal antibodies of CDH6 with different dilutions (0.1 ng/mL to 100 ng/mL), and the mixture was reacted at 37° C. for 1 h; after being washed with PBST, the plate was added with horseradish peroxidase-labeled goat anti-human IgG secondary antibody (Goat anti Mouse (HRP), Thermo Fisher Scientific), and the mixture was reacted at 37° C. for 30 min; after the plate was repeatedly washed with PBST 5 times, the remaining droplets on the absorbent paper were patted as much as possible; each well of the plate was added with 100 μL of TMB (eBioscience) and placed in the dark at room temperature (20±5° C.) for 1.5 min; each well of the plate was added with 100 μL of 2 N H2SO4 stop buffer for stopping substrate reaction, OD values at 450 nm were read using a microplate reader, and the binding ability of the antibody to the target antigen CDH6 was analyzed. As shown in Table 1 and FIG. 23, the sensitivity of the anti-CDH6 antibody and CDH6 recombinant protein of the present application was not more than 12.5 ng/mL, wherein #13 (CL069463 antibody) was not more than 3.125 ng/mL, #23 (CL069707 antibody) was not more than 1.56 ng/mL, #4 (CL069066 antibody) was not more than 6.3 ng/mL, and #16 (CL069439 antibody) was not more than 1.0 ng/mL.

[2] = tested on: OVCAR-3 cells (human ovarian cancer cells); assay: Flow cytometry recognition of cell-surface CDH6, OVCAR-3 positive cells; format: binding; settings: antibody diluted to 20 μg/mL, FCM, FIG. 24
Method: (§1) The binding of 13 CDH6 monoclonal antibodies to CDH6 on the cell surface was analyzed by Flow cytometry (FCM) using OVCAR-3 cells (human ovarian cancer cells) as positive cells and HepG2 cells (human hepatoma cells) as negative cells. Cells in the logarithmic growth phase were collected, adjusted to a cell density of 5×10^6 cells/mL, and pre-cooled on ice. 13 CDH6 monoclonal antibodies were diluted to 20 μg/mL in 2% FBS-containing pre-cooled saline. 100 μL of cells were taken and added with an equal volume of the diluted CDH6 monoclonal antibodies described above, and the mixture was reacted at 4° C. for 30 min in the dark. After the reaction was completed, the cells were washed twice with […] pre-cooled saline (6000 rpm, 45 s). The secondary antibody PE anti-mouse IgG (BD Pharmingen) was diluted at 1:500 with 2% FBS-containing pre-cooled saline, and each of the washed cells were resuspended with 100 μL of diluted secondary antibody and reacted for 30 min at 4° C. in the dark. After the reaction was completed, the cells were washed twice with 2% FBS-containing pre-cooled saline (6000 rpm, 45 s). The cells were resuspended in 400 μL of saline. The flow cytometer (BD Calibur) was used to analyze the binding ability of antibodies to cell surface antigens.

[3] = tested on: HepG2 cells (human hepatoma cells); assay: Flow cytometry, HepG2 negative cells; format: binding; settings: antibody diluted to 20 μg/mL, FCM
Method: as §1

[4] = tested on: Renal Carcinoma Patient-Derived Xenograft (PDX); assay: In vivo antitumor effect in renal carcinoma patient-derived xenograft (PDX) model; set-up: species or system mice; settings: 10 mg/kg intravenous, compared with IgG-LP1 or IgG-GGFG-DXd, FIG. 21A
Method: 6-8 weeks Nu/Nu mice were purchased from Zhejiang Charles River Co., Ltd. The tumors were sliced into 3 mm×3 mm×3 mm (about 50-90 mg) fragments and implanted subcutaneously into the right flank of mice. Then the animals were checked daily for tumor growth and body weight. The mice were randomized into 5 groups when mean tumor volume reaches ˜150 mm^3. The grouping day was regarded as day 0. Mice were then injected intravenous with 10 mg/kg of one of the following substances:10 mg/kg IgG-LP1, CL069707-H1L1-LP1, IgG-GGFG-DXd, Reference ADC and Reference Antibody-LP1. Tumor volumes were measured two times per week from day of treatment initiation by Caliper and calculated as follows: […].

[5] = Hydrophilicity of antibody-drug conjugate by HIC-HPLC (common procedure H); format: physicochemical; settings: shorter retention time = better hydrophilicity
Description: The Hydrophilicity of the antibody-drug conjugate can be determined by hydrophobic interaction chromatography (HIC) in high-performance liquid chromatography (HPLC) analysis using the following method. • HPLC system: Agilent 1260 Infinity II HPLC system (Agilent Technologies, Inc.) • Detector: Ultraviolet absorption spectrometer (measurement wavelength: 280 nm) • HIC-Column: TOSOH TSKgel Butyl-NPR (4.6 mm I.D.×3.5 cm, 2.5 μm) • Mobile phase A: 1.5 mol/L (NH4)2SO4, 50 mmol/L KHPO4, pH7.0 • Mobile phase B: 50 mmol/L KHPO4, 25% (v/v) isopropanol, pH7.0 • Isocratic Operation: 25 min • Column temperature: room temperature • Gradient program (B %): 0%-25% (0 min-1 min), 25% (1 min-3 min), 25%-80% (3 min-13 min), 80% (13 min-17 min), 80%-0% (17 min-17.10 min), 0% (17.10 min-25 min) • Sample injection: 10 μL
It is confirmed that the shorter the retention time, the better of the sample's hydrophilicity

[6] = Aggregation of antibody-drug conjugate by SEC-HPLC (common procedure G); format: physicochemical
Description: The aggregation in the antibody-drug conjugate can be determined by size exclusion chromatography (SEC) in high-performance liquid chromatography (HPLC) analysis using the following method. • HPLC system: Agilent 1260 Infinity II HPLC system (Agilent Technologies, Inc.) • Detector: Ultraviolet absorption spectrometer (measurement wavelength: 280 nm) • SEC-Column: TOSOH TSKgel G3000SWXL (7.8×300 mm, 5 μm) • Mobile phase: 200 mmol/L KHPO4, 150 mmol/L NaCl, 15% (v/v) isopropanol, pH7.0 • Flow rate: 0.75 mL/min • Isocratic Operation: 18 min • Column temperature: room temperature • Sample injection: 50 μg
The SEC chromatogram of quality control (QC, CL069707-H1L1) was shown in FIG. 5A, it is confirmed that the molecular weight of the main QC product is about 150 kDa and the monomer retention time is around 9.5-10.5 min. Meanwhile, the retention time of aggregation is earlier than that of monomer.

Row | Molecule | sensitivity of the anti-CDH6 antibody and CDH6 recombinant protein (ELISA) [1] | specific recognition of OVCAR-3 cells (positive cells) [2] | binding to negative cells HepG2 [3] | tumor volume / tumor growth inhibition [4] | retention time of the antibody-drug conjugate measured by common procedure H [5] [min] | aggregation of the antibody-drug conjugate measured by common procedure G [6] [%]
1 | B1 | not more than 3.125 ng/mL | capable of specifically recognizing | no binding was observed | – | – | –
2 | B2 | not more than 1.0 ng/mL | – | – | – | – | –
3 | B3 | – | – | – | no tumor growth inhibition activity | 7.672 | 2.68
4 | B4 | not more than 6.3 ng/mL | – | – | – | – | –
5 | B5 | not more than 1.56 ng/mL | capable of specifically recognizing | no binding was observed | – | – | –
